Fold diff data for one molecule are collected here from US20220332804A1 (CSL INNOVATION, published 2022).

Positions count from the first letter of the chain named.

What all share (assay): SPR, KD relative to WT C2;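 further: biacore SPR at 37 °C, anti-C2 mAbs captured via immobilised goat anti-human IgG, C2 alanine or serine surface mutants as analytes, 1:1 model fitted, double-referenced sensograms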
The target of one assay is T1, human C2 D282A (human, UniProt P06681 21-752).
T1 sequence: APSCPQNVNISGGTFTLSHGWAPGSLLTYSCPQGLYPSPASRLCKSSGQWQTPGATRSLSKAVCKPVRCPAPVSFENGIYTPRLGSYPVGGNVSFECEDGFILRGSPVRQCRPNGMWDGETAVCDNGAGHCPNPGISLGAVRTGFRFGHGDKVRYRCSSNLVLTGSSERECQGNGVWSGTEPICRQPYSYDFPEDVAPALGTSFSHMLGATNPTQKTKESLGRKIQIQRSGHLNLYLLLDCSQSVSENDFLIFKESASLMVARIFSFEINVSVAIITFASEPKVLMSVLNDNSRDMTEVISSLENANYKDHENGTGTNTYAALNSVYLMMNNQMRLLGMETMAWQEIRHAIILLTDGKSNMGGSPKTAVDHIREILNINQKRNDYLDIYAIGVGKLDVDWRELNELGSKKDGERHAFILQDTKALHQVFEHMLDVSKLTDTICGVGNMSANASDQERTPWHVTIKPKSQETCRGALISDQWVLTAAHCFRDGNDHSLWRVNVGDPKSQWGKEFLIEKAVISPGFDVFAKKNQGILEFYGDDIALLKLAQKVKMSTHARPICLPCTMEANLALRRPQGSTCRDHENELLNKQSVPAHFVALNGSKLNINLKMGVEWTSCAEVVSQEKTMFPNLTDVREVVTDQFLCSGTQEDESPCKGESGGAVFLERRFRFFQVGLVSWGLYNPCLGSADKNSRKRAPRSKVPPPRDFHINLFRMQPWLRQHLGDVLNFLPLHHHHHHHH

The target of a further assay is T2, human C2 N380A (human, UniProt P06681 21-752).
T2 sequence: T1 sequence with A262D, N360A

A further assay deals with T3, human C2 P724A (human, UniProt P06681 21-752).
T3 sequence: T1 sequence with A262D, P704A

In another assay the target is T4, human C2 A326S (human, UniProt P06681 21-752).
T4 sequence: T1 sequence with A262D, A306S

B1: RF16-226 (antibody, human IgG4 S228P, lambda)
heavy: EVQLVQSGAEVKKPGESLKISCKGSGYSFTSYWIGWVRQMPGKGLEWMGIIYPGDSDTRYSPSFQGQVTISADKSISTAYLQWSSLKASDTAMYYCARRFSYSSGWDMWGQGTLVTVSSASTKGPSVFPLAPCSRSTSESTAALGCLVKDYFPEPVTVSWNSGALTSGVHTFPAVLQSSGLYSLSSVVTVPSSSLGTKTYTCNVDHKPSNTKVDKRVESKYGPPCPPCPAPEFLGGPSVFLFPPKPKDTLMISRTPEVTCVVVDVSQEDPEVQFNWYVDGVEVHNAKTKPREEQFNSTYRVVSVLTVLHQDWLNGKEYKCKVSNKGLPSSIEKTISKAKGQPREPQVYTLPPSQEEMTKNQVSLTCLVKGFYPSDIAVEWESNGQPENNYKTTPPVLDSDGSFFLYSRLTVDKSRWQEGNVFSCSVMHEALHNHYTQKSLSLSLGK
light: SYELTQPPSVSVSPGQTARITCSGDALTSKYVAWYQQKSGLAPLLVIYEDTRRPSGIPAKFSGSSSGSVATLTISGAHGDDEADYYCYSTDASGHQRVFGGGTKLTVLSQPKAAPSVTLFPPSSEELQANKATLVCLISDFYPGAVTVAWKADGSPVKAGVETTKPSKQSNNKYAASSYLSLTPEQWKSHRSYSCQVTHEGSTVEKTVAPTECS
notes: pH-dependent anti-C2 antibody from a phage display library; also called WT
As for B1, the Fold diff was found to be 1 fold with human C2 D282A, 2 fold with human C2 N380A, 40 fold with human C2 P724A and 1 fold in the assay with human C2 A326S.
